Laboratory results reported in patent US20170233472A1.

What was measured:
[1] = target: human ROR1 expressed on the surface of cancer cells (human) (UniProt Q01973); assay: FACS on HBL-2 cells (ROR1-expressing), isotype control, concentration not given; PE-A, Anti-EK Biotin
[2] = target: human ROR1 expressed on the surface of cancer cells (human) (UniProt Q01973); assay: FACS on PC-3 cells (ROR1-expressing), isotype control, concentration not given; PE-A, Anti-EK Biotin

Sequence of human ROR1 expressed on the surface of cancer cells (human) (Q01973 30-937): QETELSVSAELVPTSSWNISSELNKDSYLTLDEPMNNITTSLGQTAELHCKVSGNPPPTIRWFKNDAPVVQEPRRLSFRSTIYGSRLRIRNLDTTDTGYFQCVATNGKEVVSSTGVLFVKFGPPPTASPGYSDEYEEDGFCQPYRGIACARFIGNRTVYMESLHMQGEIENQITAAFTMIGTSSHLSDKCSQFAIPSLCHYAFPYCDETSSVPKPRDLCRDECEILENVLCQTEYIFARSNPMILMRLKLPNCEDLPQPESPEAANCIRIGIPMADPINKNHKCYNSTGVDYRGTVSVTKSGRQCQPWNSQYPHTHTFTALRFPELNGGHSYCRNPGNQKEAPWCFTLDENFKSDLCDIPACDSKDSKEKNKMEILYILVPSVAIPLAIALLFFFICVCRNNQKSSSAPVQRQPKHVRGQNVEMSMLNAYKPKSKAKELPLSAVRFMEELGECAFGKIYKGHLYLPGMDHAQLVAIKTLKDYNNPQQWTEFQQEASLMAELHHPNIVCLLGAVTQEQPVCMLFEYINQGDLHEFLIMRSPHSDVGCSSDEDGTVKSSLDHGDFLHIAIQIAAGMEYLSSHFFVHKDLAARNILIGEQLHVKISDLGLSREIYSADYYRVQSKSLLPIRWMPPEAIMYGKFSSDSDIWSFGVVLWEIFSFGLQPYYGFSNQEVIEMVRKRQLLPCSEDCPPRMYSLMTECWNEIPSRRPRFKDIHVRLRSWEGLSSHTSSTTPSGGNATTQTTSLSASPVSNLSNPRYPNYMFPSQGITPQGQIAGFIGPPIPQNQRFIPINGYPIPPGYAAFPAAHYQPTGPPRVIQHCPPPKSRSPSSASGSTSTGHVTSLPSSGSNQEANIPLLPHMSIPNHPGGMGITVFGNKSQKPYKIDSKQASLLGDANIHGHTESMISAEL

Mean: PE-A [1]: 13.8
Mean: PE-A [2]: 85.2
Substance: Isotype Control
